Tests used:
HLA-A2.1 = HLA-A2.1 (Homo sapiens, UniProt P04439, D140Y/D185E/D98H/E176V/E277Q/G131W/G231S/I119V/I121R/I166T/I218V/L300P/L318F/N151K/N90K/P208A/P217A/Q86G/Q94H/R138H/R169H/T345S); assay: HLA-A*0201 binding assay (stabilization of surface HLA-A2.1 on T2 cells, flow cytometry); conditions: for binding to HLA-A2.1: T2 cells, peptide 6.25-800 μg/ml, compared with control peptides
HLA-A1+ CD8+ T cells = assay: gamma-IFN-based ELISPOT assay; type: cell-based, human; conditions: IFN production blocked by anti-HLA-A1 monoclonal antibody
Protocol: The wells of a nitrocellulose-backed microtiter plate were coated with capture antibody by incubating overnight at 4° C. using 50 μl/well of 4 μg/ml murine anti-human −IFN monoclonal antibody in coating buffer (35 mM sodium bicarbonate, 15 mM sodium carbonate, pH 9.5). Unbound antibody was removed by washing 4 times 5 min. with PBS. Unbound sites on the membrane then were blocked by adding 200 μl/well of RPMI medium with 10% serum and incubating 1 hr. at room temperature. Antigen stimulated CD8^+ T cells, in 1:3 serial dilutions, were seeded into the wells of the microtiter plate using 100 μl/well, starting at 2×10^5 cells/well. […] Following this incubation the plates were washed with 6 times 200 μl/well of PBS containing 0.05% Tween-20 (PBS-Tween). Detection antibody, 50 μl/well of 2 μg/ml biotinylated murine anti-human −IFN monoclonal antibody in PBS+10% fetal calf serum, was added and the plate incubated at room temperature for 2 hrs. Unbound detection antibody was removed by washing with 4 times 200 μl of PBS-Tween. 100 μl of avidin-conjugated horseradish peroxidase (Pharmingen, San Diego, Calif.) was added to each well and incubated at room temperature for 1 hr. Unbound enzyme was removed by washing with 6 times 200 μl of PBS-Tween. […] The plate was air dried and the spots counted using a stereomicroscope.
No reactivity is detected from cultures without peptide (data not shown).

peptide pulsed T2 cells = assay: Epitope specific lysis by CTL from peptide-immunized HHD-A2 mice; type: in vivo; conditions: HHD-A2 mice immunized with peptide in complete Freund's adjuvants, spleen cells re-stimulated in vitro; HLA-A2+ T2 targets
Excerpt: HHD-A2 mice were immunized with ED-B29-38 (SEQ ID NO. 103) in complete Freund's adjuvants and spleen cells were harvested and re-stimulated in vitro using standard methodology.

[1] = target: T1, HLA-A2.1 (HLA-A*0201) on T2 cells (human); assay: T2 cell HLA-A2.1 stabilisation, flow cytometry with FITC anti-HLA-A2
T1 construct: MHC class I molecule on T2 cells; also called HLA-A2+ T2 cells

| Molecule | binding to HLA-A2.1 (HLA-A2.1) | other results |
| --- | --- | --- |
| GLPSIPVHPI (Homo sapien) [SEQ ID NO 21] | significant binding at even lower concentrations than the positive control peptides |  |
| GMPEGDLVYV (Homo sapien) [SEQ ID NO 6] | significant binding at even lower concentrations than the positive control peptides |  |
| RVDCTPLMY [SEQ ID NO 35] |  | HLA restriction of the response (HLA-A1+ CD8+ T cells): HLA-A1-restricted response |
| RMMNDQLMFL (Homo sapien) [SEQ ID NO 40] | significant binding at even lower concentrations than the positive control peptide | binding activity / affinity by comparison to the controls (HLA-A2.1; not run in parallel): approaches the Melan A peptide in affinity |
| MMNDQLMFL [SEQ ID NO 39] | significant binding at even lower concentrations than the positive control peptide |  |
| TLRVDCTPL (Homo sapien) [SEQ ID NO 32] | binds nearly as well |  |
| TIIGYRITVV (Homo sapien) [SEQ ID NO 103] |  | epitope specific lysis by CTL (peptide pulsed T2 cells): able to specifically lyse peptide pulsed T2 cells |
| MMNDQLMFL [PSMA663-671] |  | binding result [1]: binds |
